This is an account of results in PMC2114023 (The Journal of Cell Biology, 1985).

This assay concerns the target clathrin heavy chain (bovine brain) (bovine, UniProt P49951 1-1675, 3H-labelled by reductive methylation). The assay is described as follows: co-IP.

Chain of clathrin heavy chain (bovine brain) (P49951 whole entry): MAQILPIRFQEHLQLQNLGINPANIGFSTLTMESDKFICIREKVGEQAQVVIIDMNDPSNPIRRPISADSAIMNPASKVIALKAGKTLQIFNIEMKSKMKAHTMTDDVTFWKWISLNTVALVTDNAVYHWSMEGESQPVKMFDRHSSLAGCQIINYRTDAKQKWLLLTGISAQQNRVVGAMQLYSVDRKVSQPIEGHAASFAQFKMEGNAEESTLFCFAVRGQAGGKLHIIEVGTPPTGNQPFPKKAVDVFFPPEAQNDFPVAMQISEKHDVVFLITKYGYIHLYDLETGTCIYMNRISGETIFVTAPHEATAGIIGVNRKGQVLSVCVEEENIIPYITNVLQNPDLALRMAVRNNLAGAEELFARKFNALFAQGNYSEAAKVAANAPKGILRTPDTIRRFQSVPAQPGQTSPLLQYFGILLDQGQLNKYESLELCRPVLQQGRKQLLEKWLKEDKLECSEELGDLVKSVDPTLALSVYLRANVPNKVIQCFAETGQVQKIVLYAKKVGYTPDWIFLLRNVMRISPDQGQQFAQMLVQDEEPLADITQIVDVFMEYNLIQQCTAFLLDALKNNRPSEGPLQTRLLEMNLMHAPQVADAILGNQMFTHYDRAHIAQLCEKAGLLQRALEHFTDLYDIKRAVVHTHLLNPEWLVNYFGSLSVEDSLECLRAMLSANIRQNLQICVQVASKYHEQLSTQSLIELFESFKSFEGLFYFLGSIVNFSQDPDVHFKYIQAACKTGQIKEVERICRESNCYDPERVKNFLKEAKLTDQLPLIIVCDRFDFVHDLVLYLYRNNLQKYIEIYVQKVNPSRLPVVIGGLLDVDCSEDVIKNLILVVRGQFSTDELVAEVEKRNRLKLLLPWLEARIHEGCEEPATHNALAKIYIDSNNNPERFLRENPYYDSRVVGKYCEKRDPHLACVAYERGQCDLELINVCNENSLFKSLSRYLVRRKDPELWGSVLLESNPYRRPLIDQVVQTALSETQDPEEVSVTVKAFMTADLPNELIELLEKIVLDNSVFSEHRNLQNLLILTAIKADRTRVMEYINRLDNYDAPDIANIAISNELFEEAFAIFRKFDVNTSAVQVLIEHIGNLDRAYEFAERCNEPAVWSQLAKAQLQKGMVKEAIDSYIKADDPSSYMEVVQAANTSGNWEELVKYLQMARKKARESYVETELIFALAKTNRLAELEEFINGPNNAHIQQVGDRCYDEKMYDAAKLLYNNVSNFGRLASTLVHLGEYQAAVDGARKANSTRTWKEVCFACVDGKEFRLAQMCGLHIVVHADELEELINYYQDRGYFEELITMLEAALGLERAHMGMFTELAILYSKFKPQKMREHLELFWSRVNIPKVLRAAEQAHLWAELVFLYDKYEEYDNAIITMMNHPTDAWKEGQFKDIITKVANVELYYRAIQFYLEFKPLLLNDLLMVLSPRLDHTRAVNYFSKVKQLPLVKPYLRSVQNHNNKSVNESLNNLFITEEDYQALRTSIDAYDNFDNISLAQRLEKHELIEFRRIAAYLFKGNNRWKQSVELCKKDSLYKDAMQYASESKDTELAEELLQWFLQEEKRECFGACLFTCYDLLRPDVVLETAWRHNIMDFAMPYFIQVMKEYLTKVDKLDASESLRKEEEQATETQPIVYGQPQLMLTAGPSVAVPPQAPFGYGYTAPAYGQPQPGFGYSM

B1: clathrin light chain LCa (bovine brain) (natural protein, UniProt P04973 1-243, looked up)
chain: MAELDPFGVPAGGPALGNGVAGEEDPAAAFLAQQESEIAGIENDEAFAILDGGAPGSQPHGEPPGIPDAVDGVTNGDYYQESNGPTDSYAAISQVDRLQSEPESIRKWREEQTERLEALDANSRKQEAEWKEKAIKELDEWYARQDEQLQKTKANNRVADEAFYKQPFADVIGYVTNINHPCYSLEQAAEEAFVNDIEESSPGTEWERVARLCDFNPKSSKQAKDVSRMRSVLISLKQAPLVH
Turning to B1, the binding result is recorded as “binds”.
